Results: a protein production outcome set (Wang et al. 2014)

Experiment: label from the status in PepcDB records

Sequence | protein production
MTQDNASGDQVSKQHKAFLRKLYLAHLMDDARHNLLSLGKLTGMPRRTLQDAIASFADIGIEVEFVQDGERHNAGYYRIRTWGPISSAWMDTHVDEVKSLLGVDDAVGQATAGNGA | not failed
MTDQSVRIIEAALRLYMKKPPHEVSIEEIAREAKVSKSLIFYHFESKQKLLEEAVMHAFRKMMEEFNPRSVEEVVDYGIGFIAERREFIEFMMYALSQVRIEELERMFGEALEKVASLFEGCRHPRETAIALMAMLDGLSIYSLYFDLGKLEKYREIAMEFVESRRVRA | not failed
KRFESPSVIKPNTLTNQQLIETCDQLIENAVKHHLVADVPVGLYLSGGIDSTLLLSKIRKLGHLNFPTFTIANSSREQAFGTRDFEFARLASKLYNSDHHEVSVHAEMLQDLPAFVSMIDQPIGDSALFLTHILSKEAGQHVRVALNGAGADELFAGYNRHSAYKSYLNNLLHKNLAITLIKSTYNILPDGGNHSLKKVFRLWNKFTGMMDVDPIKTCHNFSSSEYFIEKNTSIEVDDKSYEDLSYYLYYCLRNDRTKYLISDILALTDKMTMRSSIEARVPYLDQELRRFVESLDPSVLLKNGRKWILKEVLLRNGGETFLNRPKEGFGMPFGYWLKLPVNKNFVEKLTNKNHPIYEWVPYQTIKNLVDWHLGSKRDCSSELWSVLLLMHWYEKE | failed
MSAEFIDSLAVMLLALGMTTAIGGMYFLFSALGNEKRIEGLLMPAVGVGLFDFMSGFVMSFTWPLPSSYNMLFGDPLLMAGLLLMISAIAYYKHYDISSVSILLFFLGIYVIIEAVGIVNYHLESGDNLLAAMGLYIVDGIAAILSPIMYIDQKKGKIAYMIEAAILIIGTLIALFIGYTAIYGHLLDFIKYFP | failed
MEVTLLGTGDTTGTPTVQCDCDTCERARDPDEELRANVRERGIDPTGGVERSRFSVAVENDTTGESLLVDLSPDFRHQFLRESVPLPDAAIITHIHFDHLDGLGNAYRLFDELPVHAADETDPVTDESVAEAVRSRYDYLDTVSVHAQTPLEPFTVAGFEVTLVPVTHPPLLCYGLRIEEPQTGAVLSISGDTCYDVPDRSKSVLTGADLALVEGIVHPEACEYHPKGGTHHNEDGVPRTFGTKHMTLPGARDFAADIEADDYRIVHTAHYVPADRAFADDIGLDGEQFML | failed
SLREMLGCCKVYISEARNKTALEAIERALKPFPPAAIVNKFEDAAYGRVGYTVVSSLANGSSSSLKNAVFAMVKTALDTINLELHCGSHPRLGVVDHICFHPLSQTSIEQVSSVANSLAMDIGSILRVPTYLYGAAEKEQCTLDSIRRKLGYFKANREGHEWAGGFDLEMVPLKPDAGPQEVSKAKGVVAVGACGWVSNYNVPVMSNDLKAVRRIARKTSERGGGLASVQTMALVHGEGVIEVACNLLNPSQVGGDEVQGLIERLGREEGLLVGKGYYTDYTPDQIVERYMDLLNNS | failed
MKVNKFITIYKDIAQQIEGGRWKAEEILPSEHELTAQYGTSRETVRKALHMLAQNGYIQKIRGKGSVVLNREKMQFPVSGLVSFKELAQTLGKETKTTVHKFGLEPPSELIQKQLRANLDDDIWEVIRSRKIDGEHVILDKDYFFRKHVPHLTKEICENSIYEYIEGELGLSISYAQKEIVAEPCTDEDRELLDLRGYDHMVVVRNYVFLEDTSLFQYTESRHRLDKFRFVDFARRGK | not failed
QVSDEDVMLMIRQGAKKGVFESVEYEMISRIFRMSDKRASALMTPRNEIEWLDLERPDEELVARIKASGRSRFPVAKGSLDELQGVVRSLDLVNFSLSSKGSIREAIRASMKPPLFVPESVPAFHVLELFKKNRAHMALVIDEHGSVQGAITLTDVLESIVGDVPADDMEGD | failed
MTQLELLLERIIDRVNVNLRHQKFDVGDYVRRQTPHLHYSKFYAFYGLSADDPVHFHFKNSSLAGSYLLGRVNVLHSALYKSDIRGDELKRKGQHFVCDGKMIPLHDDEVITIKDSFLNKTLVHSNSHDPESPEEFTIRNTVAMPYANIHGSLTEGSFIGSFATVDLSTIHNSVVRYFSYVQTGELVGKCVEPGQIWIKSGDELEFHYSFDKAILDKYISQEAGSCPTGVLMEFVEVRQEDFEEVFASGHMASGAGSASGASVSGYAVIKGDTVIGENVLVSQRAYLDNAWMGKGSNAQENCYIINSRLERNCVTAHGGKIINAHLGDMIFTGFNSFLQGSESSPLKIGDGCVVMPHTIIDLEEPLEIPAGHLVWGYIRNKADLAAHSISFEEFAKVDGEVTMGRMTFRGKGGPFLDSFKKRIKRILSENGAFFDGSEGTGHAQKGKNFTFNIIQPYQDGDPRGMYPTILIQPNNGS | not failed
PSEPVTDEYLTSVTIGERKPLNDRIQLAEYDLRWPSMFSVAADKIRSALSEKALLVEHVGSTSVPGLAAKLIIDMLLGVTDSADEKSYVLPLEQQGFVLQAREPGWYEHRFFRLKSGDMEWHLHVFSAECEEIDRMLAFRNWLRVHDDDRQRYENVKRTLAARTWKHMQNYADAKSDIVREILGRA | failed
MNAVLVAVAIMLLLSLLRVQVIVAIIVGALTGGLIGGLGISETINTFTTGLGNSAPIALSYAMLGGFAISLSKTGLPDAMIQTALKWIGNEQDTKKQVYSKILILFIILTMACFSQNVIPVHIAFIPILIPALLKVLNELRVDRRLVTCIITFGLITPYMWIPAGFGKIYHDVLQTNAAQSGLTFDVTLIPKAMTIPAIGMIIGLCVAVFITYRKPRTYETEQIHTTENEIVPYTKRSITFGLLSIIATLTVQLTTESMIFGALAGIIVLSVSGSLPLKEADAILTSGMRMMSFIGFVMIAAAGFGAVLRKTGHVESLVQTSAHIIGNNKPLAAFLMLVIGLLVTMGIGSSFSTIPILTTIFVPLCIQLGFSPMATIAIIGTAGALGDAGSPASDSTLGPTSGLNADGQHHHIWDTCVPTFLHYNIPLLIFGFIAAITL | failed
MKAADEPAYLTVGTDVSAKYRGAFCEAKIKTVKRLVKVKVLLKQDNTTQLVQDDQVKGPLRVGAIVETRTSDGSFQEAIISKLTDASWYTVVFDDGDERTLRRTSLCLKGERHFAESETLDQLPLTNPEHFGTPVIAKKTNRGRRSSLPVTEDEKEEESSEEEDEDKRRLNDELLGKVVSVVSATERTEWYPALVISPSCNDDITVKKDQCLVRSFIDSKFYSIARKDIKEVDILNLPESELSTKPGLQKASIFLKTRVVPDNWKMDISEILESSSSDDEDGPAEENDEEKEKEAKKTEEEVPEEELDPEERDNFLQQLYKFMEDRGTPINKPPVLGYKDLNLFKLFRLVYHQGGCDNIDSGAVWKQIYMDLGIPILNSAASYNVKTAYRKYLYGFEEYCRSANIQFRTVHHHEPKVKEEKKDLEESMEEALKLDQEMPLTEVKSEPEENIDSNSESEREEIELKSPRGRRRIARDVNSIKKEIEEEKTEDKLKDNDTENKDVDDDYETAEKKENELLLGRKNTPKQKEKKIKKQEDSDKDSDEEEEKSQEREETESKCDSEGEEDEEDMEPCLTGTKVKVKYGRGKTQKIYEASIKSTEIDDGEVLYLVHYYGWNVRYDEWVKADRIIWPLDKGGPKKKQKKKAKNKEDSEVDEKRDEERQKSKRGRPPLKSTLSSNMPYGLSKTANSEGKSDSCSSDSETEDALEKNLINEELSLKDELEKNENLNDDKLDEENPKISAHILKENDRTQMQPLETLKLEVGENEQIVQIFGNKMEKTEEVKKEAEKSPKGKGRRSKTKDLSLEIIKISSFGQNEAGSEPHIEAHSLELSSLDNKNFSSATEDEIDQCVKEKKLKRKILGQSSPEKKIRIENGMEMTNTVSQERTSDCIGSEGMKNLNFEQHFERENEGMPSLIAESNQCIQQLTSERFDSPAEETVNIPLKEDEDAMPLIGPETLVCHEVDLDDLDEKDKTSIEDVAVESSESNSLVSIPPALPPVVQHNFSVASPLTLSQDESRSVKSESDITIEVDSIAEESQEGLCERESANGFETNVASGTCSIIVQERESREKGQKRPSDGNSGLMAKKQKRTPKRTSAAAKNEKNGTGQSSDSEDLPVLDNSSKCTPVKHLNVSKPQKLARSPARISPHIKDGEKDKHREKHPNSSPRTYKWSFQLNELDNMNSTERISFLQEKLQEIRKYYMSLKSEVATIDRRRKRLKKKDREVSHAGASMSSASSDTGMSPSSSSPPQNVLAVECR | not failed
